T1: rat IL-23R extracellular domain (ECD) protein (rat)
T1 construct: also called rat IL-23R ECD; F1LX96 amino acids 24-354
T1 chain: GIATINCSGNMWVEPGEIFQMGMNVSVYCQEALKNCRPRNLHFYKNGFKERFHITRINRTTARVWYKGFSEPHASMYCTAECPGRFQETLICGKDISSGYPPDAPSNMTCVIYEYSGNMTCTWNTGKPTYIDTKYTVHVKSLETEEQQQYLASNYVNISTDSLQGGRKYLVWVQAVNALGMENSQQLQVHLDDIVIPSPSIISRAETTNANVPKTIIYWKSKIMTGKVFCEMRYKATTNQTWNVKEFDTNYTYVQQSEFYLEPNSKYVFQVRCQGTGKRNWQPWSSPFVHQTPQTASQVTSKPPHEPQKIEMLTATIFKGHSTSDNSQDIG

T2: Recombinant human IL-23 receptor (IL-23R) extracellular domain (ECD) protein (human, UniProt Q5VWK5 24-355)
T2 construct: also called human IL-23R ECD; hu IL-23R ECD
T2 sequence: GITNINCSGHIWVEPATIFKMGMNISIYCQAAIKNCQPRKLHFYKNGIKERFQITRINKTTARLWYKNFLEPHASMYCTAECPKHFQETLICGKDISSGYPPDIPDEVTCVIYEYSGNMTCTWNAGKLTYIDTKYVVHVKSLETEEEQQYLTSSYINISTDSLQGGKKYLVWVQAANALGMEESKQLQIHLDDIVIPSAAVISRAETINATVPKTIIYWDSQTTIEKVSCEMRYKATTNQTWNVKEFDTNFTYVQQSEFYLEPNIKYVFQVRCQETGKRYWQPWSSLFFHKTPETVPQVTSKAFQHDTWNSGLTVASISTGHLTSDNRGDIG


Columns and labels:
[1] = target: T1, rat IL-23R extracellular domain (ECD) …; experiment: SPR Biacore 8K, supernatant
Procedure: (§1) Affinity by SPR using Biacore 8K. Affinity measurements using Surface Plasmon Resonance (SPR) were performed using a Biacore 8K system (Cytiva). […] Approximately 9000-10000 RU (response units) of mAbs were immobilized. The kinetic experiments were performed at 25° C. in running buffer 1× of (HBS-P+ Buffer 10× (Cytiva #BR100671)+100 μg/ml BSA). To perform kinetic experiments, approximately 150 RU of mAbs were captured followed by injections of human IL-23R or rat IL-23R at concentrations ranging from 0.8 nM to 500 nM (in a 5-fold serial dilution). The association phase was monitored for 3 minutes at 50 μL/min, then followed by 30 minutes of buffer flow (dissociation phase). […] The collected data were processed using Biacore insight Evaluation software (Version 3.0.12.15655). The kinetic analysis of the data was performed using a Langmuir 1:1 binding model. The result for each mAb was reported in the format of Ka (On-rate), Kd (Off-rate) and KD (equilibrium dissociation constant).

[2] = target: T2, Recombinant human IL-23 receptor …; experiment: SPR Biacore 8K, supernatant, analysis 2
Procedure: as §1

[3] = target: T2, Recombinant human IL-23 receptor …; experiment: SPR Biacore 8K, supernatant, analysis 1
Procedure: as §1

Binder	binding result [1]	Kd [2] [µM]	koff [2] [s⁻¹]	kon [2] [M⁻¹ s⁻¹]	Kd [3] [µM]	koff [3] [s⁻¹]	kon [3] [M⁻¹ s⁻¹]
I23RB74 (antibody, mouse IgG2a, kappa, V domains shown, mouse immunization; mouse IgG2a/kappa) VH: DVQLQESGPGLVKPSQSLSLTCSVTGYSITSGYYWNWIRQFPGNKLEWMGYISYDGSFNYNPSLKNRLSITRDTSMNQFFLKLNSVTSEDTATYYCARAEIYYDYDGDFDYWGQGTTLTVSS VL: DIVLTQSPASLAVSLGQRATISCRASKSVSTSGSNFLHWYQQKPGQPPKLLIYFASNLESGVPARFSGSGSGTDFTLNIHPVEEEDAATYYCQHSRELPHTFGAGTKLELKR	no binding (tested: 500 nM)	0.00233	0.00222	954000	–	–	–
I23RB267 (antibody, mouse IgG2a, kappa, V domains shown, phage display; human V regions, mouse IgG2a/kappa constant regions) VH: EVQLVQSGAEVKKPGESLKISCKGSGYSFTSYWIGWVRQMPGKGLEWMGIIYPGDSDTRYSPSFQGQVTISADKSISTAYLQWSSLKASDTAMYYCARVWYSSWDLDYWGQGTLVTVSS VL: not shown	no binding (tested: 500 nM)	0.00756	0.000178	23500	0.0181	0.000196	10800
I23RB98 (antibody, mouse IgG2a, kappa, V domains shown, mouse immunization; mouse IgG2a/kappa) VH: EFQLQQSGPELVKPGASVKMSCKASGYTFTNYYMHWVKQSHGKTIEWIGYIYPNSGDTSYNQKFKGKATLTVDKSSSTAYMELRSLTSEDSAVYTCARFGGFYDAMDYWGQGTTVTVSS VL: DIVLTQSPAIMSASLGERVTMTCTASSSVSSSYLHWYQQKPGSSPKLWIYSTSNLASGVPARFSGSGSGTSYSLTISSMEAEDAATYYCHQYHRSPFTFGSGTKLEMKR	no binding (tested: 500 nM)	0.0258	0.0035	136000	0.0391	0.00294	75100
I23RB57 (antibody, mouse IgG2a, kappa, V domains shown, mouse immunization; mouse IgG2a/kappa) VH: EFQLQQSGPELVKPGASVKMSCKASGYTFTNYYMHWVKQSHGKTIEWIGYIYPNSGDTSYNQKFKGKATLTVDKSSSTAYMELRSLTSEDSAVYNCARFGGFYDAMDYWGQGTSVTVSS VL: DIVMTQSPAIMSASLGERVTMTCTASSSVSSSYLHWYQQKPGSSPKLWIYSTSNLASGVPARFSGSGSGTSYSLTISSMEAEDAATYYCHQYHRSPFTFGSGTKLEIKR	no binding (tested: 500 nM)	0.0381	0.00307	80700	0.0292	0.00299	102000
I23RB54 (antibody, mouse IgG2a, kappa, V domains shown, mouse immunization; mouse IgG2a/kappa) VH: EVQLQQSGGGLVKPGGSLKLSCAASGFTFSSYAMSWVRQTPEKRLEWVAGISSGGSYIYYPDNVKGRFTISRDNARNTLYLQMSSLRSEDTAMYYCARKKSDYGAMDYWGQGTTLTVSS VL: DIQMTQSPKFLLVSAGDRVTITCKASQSVSNDVAWYQQKPGQSPRLLIYYASNRYTGVPDRFTGSGYGTDFTFTISTVQAEDLAVYFCQQDYSSLPTFGAGTKLEMKR	no binding (tested: 500 nM)	0.183	0.0979	534000	–	–	–
I23RB86 (antibody, mouse IgG2a, kappa, V domains shown, mouse immunization; mouse IgG2a/kappa) VH: EVQLQQSGAELVKPGASVKLSCKASGYTFTSYWLHWVKQRPGQGLEWIGEIDPSDSYTYYNQKFKGKATLTVDKSSSTAYMQLSSLTSEDSAVYYCARSPYDYDWGAYWGQGTSVTVSS VL: DIVMTQSPSSMSVSLGDTVSITCHASQGISSNIGWLQQKPGKSFKGLIYHGTNLEDEVPSRFSGSGSGADYSLTIGSLESEDFADYYCVQYAQFPWTFGAGTKLEMKR	no binding (tested: 500 nM)	0.00814	0.000572	70300	0.00806	0.000587	72800
